Reference: the supplement of paper PMC12636428

Test system: Saccharomyces cerevisiae
Experiment: transcriptional activation domain activity (GFP:mCherry ratio, weighted mean of sorted bins, harmonized to initial dataset scale) (arbitrary fluorescence ratio units); higher = stronger transcriptional activation
Settings: beta-estradiol 1 µM; induction time 4 h
Method in brief: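 After a 1:5 dilution into SC with 1 uM beta-estradiol and 4 hours at 30 °C, yeast diploids carrying a GFP reporter and URA3-integrated barcoded tiles were sorted into 8 bins by GFP:mCherry ratio. The tiles were fused to an estradiol-inducible synthetic transcription factor. Barcodes were sequenced, tiles below 50 reads were discarded, and activation activity was taken as the read-weighted mean of bin median fluorescence, averaged across barcodes and linearly mapped onto the initial dataset scale.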

Sequence | transcriptional activation domain activity
NWYFLGTTMYFLYGESVIYYFKHIVLVDKVLLPFATHHRFISFMLYVIGFVFF | 59100
CVRVLCISFSLTLSSSCLLVGIVLRWSLCCLLYFVCVPLHLDTLLSFSSIPTL | 50600
MRTLHGLVYFFPFILYHRLVFLWLRVLALSRYVFLFSVCFPWSVLVTFVIFLY | 80100
PDVEQMVLHFYLQLCYEFFDRCPTLFHASLGLINPSTSCCCGLLFLLFFVFLY | 72800
ILLANLECFPKEKIWDKTIVGGRCLDPIQVKLIWVYNAAVNLGLDVVILILPQ | 32200
MGCFFSFLFFFLFLFLFRSTVQSKVAFSLSLFFSLFKYLFFCCLVLGYFYLVL | 70500
LLRALSDLRRWRRKYTMLLELPDPFKSQRQHAHEYQLAIPLVEEAVLSFFLFL | 57600
VILLPLSFSLWYCLLFAYGILVSLYLLTLKNPTEINFLGFYIWKYENAFWVLM | 60100
PPYVVAPPVVCPYSPLIILFYMVTYFFLHCFRGLMGWLQFLALLLQSLMVGIP | 28900
HQVYTDWLYLWCLTYFARAHDQVLIILKKSLKHIPIVGWGMQFFRFLFLARSW | 31700
IRLVSSEMIRYLKKHDFKDITYYTLYISLMGFSKRYYRQGILMLKCVDIEVIY | 74500
PFPLPLLLPCPLPLLFPLSFPLLLLLPFLLPLLFTLSFTLLFMLSFPLLFMLS | 47900
MLVRLQNRLLLLGIFSHCVYGWHLEVDYVSLSDAIQTVVVQCRNLTFHITGLG | 53100
ASVERCHRNIVPNGCAVFQAGGLVVVLVEVSRKSYLASLVPVIVNAILNEHQI | 43500
VALTFYFLFLLFLILLRLGLISCFVFFNFWYIYHFFYLSINLSIFFISFHSFI | 78300
MFFPLVLSKMLICVSFLPVTLLISYLSFFFLFFTGLGLGATAFFFFTFLLYFS | 42100
AEGADAEGEGEEGEKEQEQEKQDGEKDGSEKETGNGQDGKKSEASLSVLNRLL | 29400
KAAPEDKEPEPVAVSYKVNDTVMAKWVSGDKGYYPARITSVTGSSTDPIYVVK | 19800
MFFLPFGIFFFFACFFSLFTFADSWLAVFLPDRFLLSFVLFNFAFFFFFFTTL | 31900
RAVDNSKWWLLGDSFETDVLTFVSLFQFVNAALIFNYGYLFRDRWYRNYLLLV | 47900
KKAKKGGDEAGAKGSGKPKKPAGEADGSVAAEGGAAKGKARKAASSEPKKGAK | 27900

Sequence | transcriptional activation domain activity
MPPHSEIDDIFAAKHSEPAPPPPPQKKKSKKRKRDAAAATVAPAAAPPPAAPA | 46500
MAEADQSSHHQPEPRRTHRKSRNGCVTCKQRRVKCDEGRPTCQKCSFGNRPCS | 41900
EREVRDEERTRRNREKRNRKKGKGGKGGKEDGGAGGGGGGGNVKARVGMVGDG | 15100
FKVLMQVMPFVLHGLVDDKLRTLWRMLGELGAFLWMPLIKDKEVYLRKLAVII | 48700
MIHCMLLVGSTCPFFSLFLIAYFYDAIYDLAQFDMWSLLLCIYWDISPIFLFP | 48100
PLIQVPGYHSCGHGGLGGLCQASPTLLVISQSLFLRWWHTVHLLIEIYIWLWS | 72200
VGSAINTRLTTPKLVDSPKRPGCLSISRKDQHETYLSLLMRLVVASKMCLSAY | 50800
LSIPLYGLGGPAFSDDDEGEDLIPEHERYIQEAIDGYWVLVLRILVSNRPRKT | 43800
LTHLRQLLEVKRTRRSLFVFRKTLGRIIRPVITWTYIFFFTLSMWTKPIVPLI | 36900
KKSGTTSKDEKKEGDSDSKATPSSGESAAPSAANNEGGKKEEKSEEKKEEKEE | 41700
VFSQTEAIRVLGLIGRIATGRHLDIILSDILPPSTVAELYALGKFMNLPWWYR | 58400
IDGVWFAYCHLSLFALLGEHISLNATNSEFPLVPSQSWKWDDFLFSISFLETL | 71300
LFSPFPPSISFPLSSHSSLPPLFPPLFPPLFPPFLPSLCFPLFPSLPFPPLPL | 19500
MYLFFFFFLDWFFFVVIITIICILWIWAWDFWACLLGIGIGFACLFYSGWVLF | 47800
EESLKHHEGINMVWRKFQSIFRIIGGIIYYEPIYRAFVRHVLHHLHLDNVLWV | 64600
PSASTRSAKSGSKGKGSKTTTVGSGSDTEKESAKMASSRSSKHSSSSRKDKSS | 29200
VQRLHALEKHEYDVCTNLEACLRFGLWAQRGVLSLWHLDLLNGTWMTCLSGVK | 39600
IHVESRLPEMRATLEPKRYVHVARFFSHLIIYFRLLHRPLPASTCNSMLRHYV | 47400
HLFFLKNHHCFLSFIFFLFLFTLFFYFIFFLKLQFRKNNNYLFFLYKKFLTFF | 36800
SKWWLLGDSFEADILTFITLYQFVNAGFVFNYGYIFRKSWYRNYLLICIWALF | 67200
GSTPGKTASTGRGTAGGKGVAAGSKAPASTRGGGGGTAGGGGKAGGANTKTAV | 56000

Sequence | transcriptional activation domain activity
MLLLPFIPSYLTFFLIFLFVLFDFHFWFLFLFGLTFSCCCWTLSFCKTSLIWF | 57700
MSAPPEEVASTQSAQPTTEPALIGEPVKRGRGRPKGSKNKAKPSTAATATGEA | 34800
DSRKEERRPSGHERKDRERGRDSRKDRDRKRKERLDDTASDDKKDRKRDRGEK | 24700
TKPAEASAADKKPEEAKPAEAPAPAAAPAAAEAPKAEEKPAPAPAPTEAPKAE | 21400
IGLLLLSILVIYIFISFPHHTIESGHCTISFTSPIAIFYLLLLNFFLNTYLSF | 36300
DSATPHGSPRRWTPSSKLSPSVAPSSPSSSTSTSSSPKARSRSHSRTCSTEVQ | 42200
EEKAAGRSAASGGAEGEGKKRKAEGGEGAAGEEKKEKKKGRTYRQREPLAAGG | 54900
VERCHRNIVTNGCAVFQAGGLVVVLVEVNRKSYLASIVPVIVNAILNEHQIIV | 40900
ESPSQINDFIPQKLIIEPNTLELNGLTEETPHDLPKNTAKGRDEEDFPLDYFP | 55200
VRVLGHDTLYFLTLYLLKAELFFVFFFFLFFRYMLEKRTVIKFTFFFYPCLFE | 54700
DEPTTDEKKVEETAVAVANLSVEGKKDEKKEEATLSDDKKTEAATEAVAAAPV | 10100
QCAYVLEHCMDATPGIFNYIQLYYCSPVRPLVFVLLCAWLLFLFGFVGIAASD | 23300
VLGAAKCIPFLRWPTLHLSILLSWWDADTLVRLLKALAELHLRSITITLKIGI | 55700
SSQPTKKPTPTTTTTTTTTTTTTTTTTTTTTEKPHTTHHTTHTTTTTTTKKAE | 36700
LLLPLLLPVLHIFPFLIDFLLPVLDLLLALLVLLPALLDLLLVLLVLLPPLLP | 56100
EPFHLQHQSNHVYGKIVIGDSLMDEWFIVYLLRELSLWLDHLVIRYIYRRLMI | 59900
MFGFSLFFLFCFSVIVGFILFTLFFDYSPLSISLSCSVYCIMLCLSLFFLVFF | 34200
EGRRASRRKARGKSGADTPGTSEDEGVGGTSKSKPRKKRKLERKSKDAGKFKS | 27600
VGTLHENLSSSHFMIPDVDQFNSFEDFFQDFFDSLKPNSQKMFTSDKKTEQTT | 106000
MGFFILFYFLFSLWVCGFGFFSRLSVLYLGGFVLFLINHLSLFLYIIFFFFMF | 38800
ILLRRAWTVNAEMLLHKFDPRLFPLYFRILYPTWDTCSIPAPSRLVGAAKQWL | 46700

Sequence | transcriptional activation domain activity
EEEGAVDEDEEEEDEEDPEERRKRELRERMAKMSGGMGMAGMFGGGMPMPGAA | 58900
RHLPAVNGGKLTSYAIVGEGSMSPHFVWTAHHAVYVVDGWSLALLFRKVELRY | 48200
LQTYMRSLEWTILTCSVIEIIEKLKMAPENMHELSPLCVKLIIKFCLTEILSY | 43400
MTNQPTTQDGPSPVKHRACDECRSRKLACSKEPDGCSRCKKEGIVCHYSAQKQ | 28400
MYVISGFVFLIGLLLFVMLFDTTHLCVLVLFSFLYHSGSLCRPCHTPVILLYF | 44000
MRLHCFFLFVFFFSLFSFLLATLCHSPLPLPFVHVSFFPPSLLPLPIFALDPF | 33100
VSASVVYLFFIFIFSLSYPILSCPYLLTHSLTLSILPPFSFPLPFFFLSFFLP | 58800
MAYLFLYFTIFFIFFFIAGDGGDDCEIFFLFFFFSFKALFTPFFYLYLYWTSA | 25400
SHYALCVNMHAYWHSNPHFGSEHRWLGFPPFYHVFGLSYILLLAPCLGATVCV | 61100
TLTQRLSGSMIYIWCSGGVVFAIVLALQVLVLFALLNVITCLEGHMLSIHGWP | 39900
GAGAGGKVGGGAGAGAGAGAGAGHLGGGAEGGGKIGAGAGGKVGGEIGAGGKI | 25000
MIIFFFFFFLLCHWINTGIIFHVLDLMVKFLFFIFVDQQKKLSLLLFIHFAWL | 54700
SSATASAADAATTDAASGSLEARKKKDDKKKGDKKKGKKGDKKGGKKAASTTA | 12500
SMRAPLFTELGLLPLRFRRLILALRYLSYLITLPHEHYASAALQDAFDLYSQG | 24100
KKKEEGKKRKRKRGKGRGRREKEERRKRGKEKGRRKERGKGKKKKESWGWRKG | 42000
MGFCFYVAGCMSISLILLFSFCLLLPPIFTGYQILWLLWIILPILSMSMLFTP | 43400
GFTTLSMMHATVFHGDLISFKHFLELYRHSPLLILYICGYKNTEYYAARYFYS | 34700
MRFLLLSFPCNHHPSLSLYISSISLFLLRPFIFLSLLFFCIVSYYLGVCVVWG | 53500
METATPPQPKKGRRGNPKTRTGCVTCKMRRVKCDEAKPQCKRCISTGRTCDGY | 15500
MKEPVDDNVLQEPVPFEDFKFSFGMDPDFSFPLEPTLPTPQLSFMQDPFLLFP | 116000
